Measurements taken from the supplement of paper PMC5998384.

How the values were obtained:
[1] = system: HeLa Kyoto; experiment: melting temperature (median over replicates), in situ; higher = more thermally stable
[2] = system: HeLa Kyoto; experiment: solubility in G1/S (NP-40 vs SDS abundance) (log2 ratio); higher = more soluble; details: cell cycle stage: G1/S
[3] = system: HeLa Kyoto; experiment: solubility change mitosis vs G1/S (difference of NP-40 vs SDS log2 ratios) (log2 ratio difference); higher = more soluble in mitosis
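For melting temperature (median over replicates), in situ in this document: HeLa Kyoto cells synchronized by double thymidine or nocodazole block, proteins quantified by TMT10plex mass spectrometry, three independent biological replicates.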
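For solubility change mitosis vs G1/S (difference of NP-40 vs SDS log2 ratios) in this document: synchronized HeLa Kyoto cells (double thymidine block for G1/S, nocodazole release for mitosis), protein amounts in NP-40 versus SDS lysates quantified by mass spectrometry, three biological replicates.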
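For solubility in G1/S (NP-40 vs SDS abundance) in this document: HeLa Kyoto cells arrested at G1/S by double thymidine block, proteins quantified by TMT10plex mass spectrometry in mild NP-40 versus SDS extracts, three biological replicates.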

PLSCR3, sequence (chain, as listed by the source): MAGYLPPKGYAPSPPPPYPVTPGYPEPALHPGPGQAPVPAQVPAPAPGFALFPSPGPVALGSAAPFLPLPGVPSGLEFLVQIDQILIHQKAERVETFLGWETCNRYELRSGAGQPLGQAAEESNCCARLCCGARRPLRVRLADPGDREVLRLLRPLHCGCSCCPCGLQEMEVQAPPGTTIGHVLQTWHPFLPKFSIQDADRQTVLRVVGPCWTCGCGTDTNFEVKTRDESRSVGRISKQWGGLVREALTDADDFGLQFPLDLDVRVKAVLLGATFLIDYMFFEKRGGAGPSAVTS
WWC2, sequence (chain, as listed by the source): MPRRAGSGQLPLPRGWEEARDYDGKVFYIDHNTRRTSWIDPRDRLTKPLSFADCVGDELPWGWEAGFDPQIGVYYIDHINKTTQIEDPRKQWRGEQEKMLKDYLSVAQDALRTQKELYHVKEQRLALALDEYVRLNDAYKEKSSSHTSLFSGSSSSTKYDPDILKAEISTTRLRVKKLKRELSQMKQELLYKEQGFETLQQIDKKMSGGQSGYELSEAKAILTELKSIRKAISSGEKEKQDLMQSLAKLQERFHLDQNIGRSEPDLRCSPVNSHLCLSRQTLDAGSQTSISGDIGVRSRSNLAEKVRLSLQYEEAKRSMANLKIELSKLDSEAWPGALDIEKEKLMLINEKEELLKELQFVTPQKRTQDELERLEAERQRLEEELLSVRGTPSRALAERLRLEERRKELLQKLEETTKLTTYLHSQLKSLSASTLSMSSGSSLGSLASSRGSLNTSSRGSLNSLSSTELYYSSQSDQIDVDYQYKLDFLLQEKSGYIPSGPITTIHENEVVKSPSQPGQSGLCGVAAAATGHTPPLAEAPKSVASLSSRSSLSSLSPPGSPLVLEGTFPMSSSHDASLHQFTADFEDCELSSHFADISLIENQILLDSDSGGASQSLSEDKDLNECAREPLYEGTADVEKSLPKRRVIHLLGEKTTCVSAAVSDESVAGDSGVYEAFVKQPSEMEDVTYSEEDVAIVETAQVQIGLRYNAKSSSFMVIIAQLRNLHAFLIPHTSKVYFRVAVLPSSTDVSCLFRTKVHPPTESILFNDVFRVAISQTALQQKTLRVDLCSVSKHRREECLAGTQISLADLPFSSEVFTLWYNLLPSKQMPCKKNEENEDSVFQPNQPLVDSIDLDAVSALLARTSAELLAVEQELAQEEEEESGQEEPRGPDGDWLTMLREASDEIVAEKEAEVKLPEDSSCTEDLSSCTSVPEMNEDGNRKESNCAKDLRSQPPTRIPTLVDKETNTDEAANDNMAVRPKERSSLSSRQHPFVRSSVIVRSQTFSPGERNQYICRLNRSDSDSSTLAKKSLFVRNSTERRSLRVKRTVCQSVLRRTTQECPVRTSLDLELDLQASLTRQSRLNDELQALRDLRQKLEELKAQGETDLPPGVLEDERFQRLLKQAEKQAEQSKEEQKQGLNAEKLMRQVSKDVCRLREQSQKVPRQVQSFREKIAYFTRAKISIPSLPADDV
PYM1, sequence (chain, as listed by the source): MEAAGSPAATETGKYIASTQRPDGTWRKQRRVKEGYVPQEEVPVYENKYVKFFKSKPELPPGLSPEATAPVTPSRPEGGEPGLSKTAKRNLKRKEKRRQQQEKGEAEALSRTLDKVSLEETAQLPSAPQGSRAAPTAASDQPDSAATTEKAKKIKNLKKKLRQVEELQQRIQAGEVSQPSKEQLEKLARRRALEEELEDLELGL
UBE2D3, sequence (chain, as listed by the source): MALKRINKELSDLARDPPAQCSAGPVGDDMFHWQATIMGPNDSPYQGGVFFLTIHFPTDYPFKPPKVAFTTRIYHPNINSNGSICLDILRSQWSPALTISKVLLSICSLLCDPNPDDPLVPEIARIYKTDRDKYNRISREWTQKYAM

Substance | melting temperature ([1]; cell cycle stage: G1/S) [°C] | melting temperature ([1]; cell cycle stage: mitosis) [°C] | solubility in G1/S (log2) [2] | solubility change mitosis (log2) [3]
MYLSICCCFLLWAPALTLKNLNYSVPEEQGAGTVIGNIGRDARLQPGLPPAERGGGGRSKSGSYRVLENSAPHLLDVDADSGLLYTKQRIDRESLCRHNAKCQLSLEVFANDKEICMIKVEIQDINDNAPSFSSDQIEMDISENAAPGTRFPLTSAHDPDAGENGLRTYLLTRDDHGLFGLDVKSRGDGTKFPELVIQKALDREQQNHHTLVLTALDGGEPPRSATVQINVKVIDSNDNSPVFEAPSYLVELPENAPLGTVVIDLNATDADEGPNGEVLYSFSSYVPDRVRELFSIDPKTGLIRVKGNLDYEENGMLEIDVQARDLGPNPIPAHCKVTVKLIDRNDNAPSIGFVSVRQGALSEAAPPGTVIALVRVTDRDSGKNGQLQCRVLGGGGTGGGGGLGGPGGSVPFKLEENYDNFYTVVTDRPLDRETQDEYNVTIVARDGGSPPLNSTKSFAIKILDENDNPPRFTKGLYVLQVHENNIPGEYLGSVLAQDPDLGQNGTVSYSILPSHIGDVSIYTYVSVNPTNGAIYALRSFNFEQTKAFEFKVLAKDSGAPAHLESNATVRVTVLDVNDNAPVIVLPTLQNDTAELQVPRNAGLGYLVSTVRALDSDFGESGRLTYEIVDGNDDHLFEIDPSSGEIRTLHPFWEDVTPVVELVVKVTDHGKPTLSAVAKLIIRSVSGSLPEGVPRVNGEQHHWDMSLPLIVTLSTISIILLAAMITIAVKCKRENKEIRTYNCRIAEYSHPQLGGGKGKKKKINKNDIMLVQSEVEERNAMNVMNVVSSPSLATSPMYFDYQTRLPLSSPRSEVMYLKPASNNLTVPQGHAGCHTSFTGQGTNASETPATRMSIIQTDNFPAEPNYMGSRQQFVQSSSTFKDPERASLRDSGHGDSDQADSDQDTNKGSCCDMSVREALKMKTTSTKSQPLEQEPEECVNCTDECRVLGHSDRCWMPQFPAANQAENADYRTNLFVPTVEANVETETYETVNPTGKKTFCTFGKDKREHTILIANVKPYLKAKRALSPLLQEVPSASSSPTKACIEPCTSTKGSLDGCEAKPGALAEASSQYLPTDSQYLSPSKQPRDPPFMASDQMARVFADVHSRASRDSSEMGAVLEQLDHPNRDLGRESVDAEEVVREIDKLLQDCRGNDPVAVRK [PCDH17] | 53.8 | 53.4 | 0.25 | -0.0215
PHLPP1 | 51.7 | 51.2 | 0.00518 | -0.0508
PIEZO2 | 55.7 | 54.8 | -0.112 | -0.0931
PLSCR3 |  | 56.6 | 0.116 | -0.119
PYM1 | 57.1 | 53.9 | 0.42 | 0.791
QSER1 | 46.5 | 48.5 | -0.136 | -0.127
RAP1GAP | 49.2 |  | 0.239 | -0.474
RERE |  | 50.7 | -0.116 | 0.148
RINT1 | 51.4 | 49.2 | -0.0714 | -0.105
SYNE2 | 51.1 | 50.3 | -0.84 | 0.607
TNRC6A | 50.7 |  | -0.225 | -0.0232
UBE2D3 | 49.5 |  | 0.585 | 0.0226
WWC2 | 51.1 | 49.9 | -0.102 | -0.0226
